Results from US20250288697A1.
Where two headings read alike, the source gives them in different places.

Assays:
[1] = biological target: recombinant mouse TNFα (mouse) (UniProt P06804)
[2] = biological target: recombinant mouse TNFα (mouse) (UniProt P06804); remark: listed apart in the source

UniProt P06804, sequence (P06804 80-235 limits assumed): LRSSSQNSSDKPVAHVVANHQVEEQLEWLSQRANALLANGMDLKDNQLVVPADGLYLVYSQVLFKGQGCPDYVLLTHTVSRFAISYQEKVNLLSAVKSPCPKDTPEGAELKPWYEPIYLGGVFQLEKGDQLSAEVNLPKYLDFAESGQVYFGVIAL

Question: What does the source list for “TNFR2-Fc (etanercept), vectorized (Fc fusion)”?
Answer: IC50 (read off the curve); HEK-Blue TNFα reporter (SEAP), % TNFα activity [1]: 0.9 µg/mL; IC50 (read off the curve); HEK-Blue TNFα reporter (SEAP), % TNFα activity [2]: 0.5 µg/mL
